Measurements reported in paper PMC7949077.

What was measured:
Experiment in all cases: SPR
HuR (ELAVL1) = conditions: HuR alone; SPR: HBS-EP buffer, Biacore T200 SA chip, 1:1 fit. UV crosslinking/EMSA: 2x RNA-binding buffer listed as 5 mM HEPES, 25 mM KCl, 2 mM MgCl2, 2 mM DTT, 0.1 mM …
La (lupus antigen, SSB) = conditions: SPR: HBS-EP buffer, Biacore T200 SA chip, 1:1 fit. UV crosslinking/EMSA: 2x RNA-binding buffer listed as 5 mM HEPES, 25 mM KCl, 2 mM MgCl2, 2 mM DTT, 0.1 mM …
[1] = system: La (lupus antigen, SSB);HuR (ELAVL1); conditions: equimolar La and HuR, same total protein; 1:1 fit; SPR: HBS-EP buffer, Biacore T200 SA chip, 1:1 fit. UV crosslinking/EMSA: 2x RNA-binding buffer listed as 5 mM HEPES, 25 mM KCl, 2 mM MgCl2, 2 mM DTT, 0.1 mM …

PDCD4 3'UTR full length
Kd (HuR (ELAVL1)): 42.7 nM
Kd (La (lupus antigen, SSB); La alone, first experiment): 27 nM
Kd (La (lupus antigen, SSB); La alone, second experiment): 22 nM
Kd (La (lupus antigen, SSB); equimolar mix with HuR triple mutant (non-binding), same total protein): 27.5 nM
Kd [1]: 10.5 nM
